Data on 1 molecule can be found in patent CN116731161A (UNIV NANKAI, dated 2023).

This assay has as its target T1, FcγRI (UniProt P12314 16-288).
T1 construct: also called CD64
The assay can be described thus: SPR (Biacore T200), His-tagged target captured on anti-His chip, antibody as analyte.

T1 sequence (P12314 16-288 limits assumed): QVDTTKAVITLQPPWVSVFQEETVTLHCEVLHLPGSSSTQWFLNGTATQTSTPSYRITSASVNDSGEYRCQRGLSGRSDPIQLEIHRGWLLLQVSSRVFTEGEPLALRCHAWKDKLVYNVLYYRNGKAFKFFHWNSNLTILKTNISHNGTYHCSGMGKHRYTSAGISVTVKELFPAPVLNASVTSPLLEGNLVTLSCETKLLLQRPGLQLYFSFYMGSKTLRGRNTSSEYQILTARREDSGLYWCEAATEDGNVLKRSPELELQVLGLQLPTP

B1: X构型Rituximab抗体 (antibody, human IgG1, kappa)
heavy: not shown
light: QIVLSQSPAILSASPGEKVTMTCRASSSVSYIHWFQQKPGSSPKPWIYATSNLASGVPVRFSGSGSGTSYSLTISRVEAEDAATYYCQQWTSNPPTFGGGTKLEIKRTVAAPSVFIFPPSDEQLKSGTASVVCLLNNFYPREAKVQWKVDNALQSGNSQESVTEQDSKDSTYSLSSTLTLSKADYEKHKVYACEVTHQGLSSPVTKSFNRGECGGGGSGGGGSGGGGSGGGGSGGGGSGGGGSVPPPPPCCHPRLSLHRPALEDLLLGSEANLTCTLTGLRDASGVTFTWTPSSGKSAVQGPPERDLCGCYSVSSVLPGCAEPWNHGKTFTCTAAYPESKTPLTATLSKSGNTFRPEVHLLPPPSEELALNELVTLTCLARGFSPKDVLVRWLQGSQELPREKYLTWASRQEPSQGTTTFAVTSILRVAAEDWKKGDTFSCMVGHEALPLAFTQKTIDRLAGK
notes: also called X构型抗体; Rituximab X-body
As for B1, the binding result is on record as “binds”.
